# Results from patent US12139520B2 (priority 2020, dated 2024).
# Changes are numbered by the printed parent chain. Numbered stars: 1 amine (or outer) side, 2 acyl side, 3 side chain; on linkers, the order of the positions; unused ones are H or OH. Bridge positions count the residues as written; N and C are the ends. Square brackets hold non-standard residues; d marks the D form. Ends that are not written are not given here. * marks the point of attachment. C20 diacid = O=C(O)CCCCCCCCCCCCCCCCCCC(=O)*; γGlu = O=C(O)[C@H](CCC(=O)[*:2])N[*:1]; Hyp = O=C(O)[C@@H]1C[C@@H](O)CN1
# T1: hAMY3R (human, UniProt P30988)
# T1 sequence 1: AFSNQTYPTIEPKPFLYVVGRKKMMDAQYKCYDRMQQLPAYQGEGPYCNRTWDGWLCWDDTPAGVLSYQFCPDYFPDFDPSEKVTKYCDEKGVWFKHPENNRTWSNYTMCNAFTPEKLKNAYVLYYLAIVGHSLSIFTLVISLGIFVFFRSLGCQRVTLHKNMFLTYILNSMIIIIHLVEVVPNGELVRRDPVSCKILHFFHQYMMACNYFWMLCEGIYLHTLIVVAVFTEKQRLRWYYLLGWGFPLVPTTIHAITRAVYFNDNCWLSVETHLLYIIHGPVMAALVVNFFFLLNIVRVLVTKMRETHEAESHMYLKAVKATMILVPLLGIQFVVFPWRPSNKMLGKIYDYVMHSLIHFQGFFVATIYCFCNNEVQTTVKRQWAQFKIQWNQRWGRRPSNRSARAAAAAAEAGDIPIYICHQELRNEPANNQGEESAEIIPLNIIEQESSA
# T1 sequence 2: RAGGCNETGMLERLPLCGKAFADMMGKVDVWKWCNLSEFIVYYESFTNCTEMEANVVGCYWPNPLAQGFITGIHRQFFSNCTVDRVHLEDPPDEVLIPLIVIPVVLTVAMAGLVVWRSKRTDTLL
# B1: SEQ ID NO: 173 (peptide)
# peptide: GCRMGTCTVQRLAHQIYQFTDKFKDNVAPRSKISPQT[Hyp]-NH2
# modifications: disulfide 2-7 (inferred); ends not checked
# B2: SEQ ID NO: 174 (peptide)
# peptide: GCRFGTCTVQRLAHQIYQFTDKDKDNVAPRSKVSPQGY
# B3: SEQ ID NO: 175 (peptide)
# peptide: GCRFGTCTVQRLAHQIYQFTDKDKDNVAPRSKVSPNG[Hyp]-NH2
# modifications: disulfide 2-7 (inferred); ends not checked
# B4: SEQ ID NO: 18 (peptide)
# peptide: KCNFATCTVQRLAHQIYQFTDKDKDNVAPPTEVGSNGP
# B5: SEQ ID NO: 176 (peptide)
# peptide: B2 peptide with F4T, S31T, K32N
# B6: SEQ ID NO: 177 (peptide)
# peptide: B2 peptide with F4T, K32N, S34G, Q36N
# B7: SEQ ID NO: 178 (peptide)
# peptide: GCRTGTCTVQRLAHQIYQFTDKDKDNVAPRTNVSPQG[Hyp]-NH2
# modifications: disulfide 2-7 (inferred); ends not checked
# B8: SEQ ID NO: 179 (peptide)
# peptide: GCRTGTCTVQRLAHQIYQFTDKDKDNVAPRSKIGPQG[Hyp]-NH2
# modifications: disulfide 2-7 (inferred); ends not checked
# B9: SEQ ID NO: 180 (peptide)
# peptide: KCNTATCATQRLANFLVHSSNNFGAILPSTKIGSNTY
# B10: SEQ ID NO: 181 (peptide)
# peptide: KCNTATCTVQRLAHQIYFTDKDKDNVAPPTNVGSNG[Hyp]-NH2
# modifications: disulfide 2-7 (inferred); ends not checked
# B11: SEQ ID NO: 182 (peptide)
# peptide: B2 peptide with K32N, V33I
# B12: SEQ ID NO: 183 (peptide)
# peptide: B2 peptide with F4T, K32N
# B13: SEQ ID NO: 184 (peptide)
# peptide: GCRTGTCTVQRLAHQIYQFTDKFKDNVAPRSKISPQTW
# B14: SEQ ID NO: 185 (peptide)
# peptide: GCRTGTCTVQRLAHQIYQFTDKFKDNVAPRSKISPQW[Hyp]-NH2
# modifications: disulfide 2-7 (inferred); ends not checked
# B15: SEQ ID NO: 19 (peptide)
# peptide: B9 peptide with S29R, I32V, T36G
# B16: SEQ ID NO: 186 (peptide)
# peptide: GCRTGTCTVQRLAHQIYQFTDKFKDNVAPRSKISPQY[Hyp]-NH2
# modifications: disulfide 2-7 (inferred); ends not checked
# B17: SEQ ID NO: 187 (peptide)
# peptide: GCRTGTCTVQRLAHQIYQFTDKDKDNVAPRSKVGPQG[Hyp]-NH2
# modifications: disulfide 2-7 (inferred); ends not checked
# B18: SEQ ID NO: 188 (peptide)
# peptide: GCRTGTCTVQRLAHQIYQFTDKDKDNVAPRTNISPNGY
# B19: SEQ ID NO: 189 (peptide)
# peptide: GCRTGTCTVQRLAHQIYQFTDKDKDNVAPRTKISPQG[Hyp]-NH2
# modifications: disulfide 2-7 (inferred); ends not checked
# B20: SEQ ID NO: 190 (peptide)
# peptide: B18 peptide with N32K
# B21: SEQ ID NO: 191 (peptide)
# peptide: B18 peptide with T31S, S34G, N36Q
# B22: SEQ ID NO: 192 (peptide)
# peptide: GCRMGTCTVQRLAHQIYQFTNKDKDNVAPRSKISPQT[Hyp]-NH2
# modifications: disulfide 2-7 (inferred); ends not checked
# B23: SEQ ID NO: 193 (peptide)
# peptide: GCRTGTCTVQRLAHQIHQFTDKFKDNVAPRSKISPQT[Hyp]-NH2
# modifications: disulfide 2-7 (inferred); ends not checked
# B24: SEQ ID NO: 194 (peptide)
# peptide: KCRMGTCTVQRLAHQIYQFTDKDKDNVAPRSKISPQT[Hyp]-NH2
# modifications: disulfide 2-7 (inferred); ends not checked
# B25: SEQ ID NO: 195 (peptide)
# peptide: KCNTATCTVQRLAHQIYQTDKDKDNVAPPTNVGSNG[Hyp]-NH2
# modifications: disulfide 2-7 (inferred); ends not checked
# B26: SEQ ID NO: 20 (peptide)
# peptide: KCNTATCTVQRLAHQIYQFTDKDKDNVAPRTKVGSNG[Hyp]-NH2
# modifications: disulfide 2-7 (inferred); ends not checked
# B27: SEQ ID NO: 196 (peptide)
# peptide: GCRTGTCTVQRLAHQIAQFTDKFKDNVAPRSKISPQT[Hyp]-NH2
# modifications: disulfide 2-7 (inferred); ends not checked
# B28: SEQ ID NO: 197 (peptide)
# peptide: GCRTGTCTVQRLAHQIYQFTDKDKDNVAPRTKISPNG[Hyp]-NH2
# modifications: disulfide 2-7 (inferred); ends not checked
# B29: SEQ ID NO: 198 (peptide)
# peptide: GCRIGTCTVQRLAHQIYQFTNKDKDNVAPRSKISPQT[Hyp]-NH2
# modifications: disulfide 2-7 (inferred); ends not checked
# B30: SEQ ID NO: 199 (peptide)
# peptide: B18 peptide with N36Q
# B31: SEQ ID NO: 200 (peptide)
# peptide: {C20 diacid-γGlu}-GCRFGTCTVQRLAHFLYQFTDKDKDNVAPRTNVGPQGY-NH2
# modifications: disulfide 2-7 (inferred); ends not checked
# B32: SEQ ID NO: 201 (peptide)
# peptide: GCRTGTCTVQRLAHQIYQFTDKFKDNVAPRSKISPQH[Hyp]-NH2
# modifications: disulfide 2-7 (inferred); ends not checked
# B33: SEQ ID NO: 202 (peptide)
# peptide: GCRWGTCTVQRLAHQIYQFTDKDKDNVAPSSKISPQT[Hyp]-NH2
# modifications: disulfide 2-7 (inferred); ends not checked
# B34: SEQ ID NO: 203 (peptide)
# peptide: GCRTGTCTVQRLAHQIYQFTDKFKDNVAPRSKISPQP[Hyp]
# modifications: ends and bridges not checked
# B35: SEQ ID NO: 204 (peptide)
# peptide: GCRTGTCTVQRLAHQIYQFTDKDKDNVAPRSKVSPNG[Hyp]-NH2
# modifications: disulfide 2-7 (inferred); ends not checked
# B36: SEQ ID NO: 205 (peptide)
# peptide: KCRFGTCTVQRLAHQIYQFTDKDKDNVAPRSKISPQT[Hyp]-NH2
# modifications: disulfide 2-7 (inferred); ends not checked
# Target: T1, hAMY3R
# Experiment: cell-based or functional assay
row,Binder,hAMY3R EC50 (cAMP) [nM]
1,B1,0.069
2,B2,0.071
3,B3,0.074
4,B4,0.008
5,B5,0.076
6,B6,0.077
7,B7,0.08
8,B8,0.082
9,B9,0.082
10,B10,0.082
11,B11,0.085
12,B12,0.088
13,B13,0.09
14,B14,0.09
15,B15,0.008
16,B16,0.091
17,B17,0.093
18,B18,0.094

row,Binder,hAMY3R EC50 (cAMP) [nM]
1,B19,0.096
2,B20,0.097
3,B21,0.098
4,B22,0.098
5,B23,0.099
6,B24,0.112
7,B25,0.112
8,B26,0.008
9,B27,0.114
10,B28,0.12
11,B29,0.122
12,B30,0.124
13,B31,0.126
14,B32,0.126
15,B33,0.126
16,B34,0.127
17,B35,0.129
18,B36,0.13

# Target: hAM1R (human, UniProt Q16602)
# Experiment: cell-based or functional assay
row,Binder,hAM1R EC50 (cAMP) [nM]
1,B1,> 5000
2,B2,133
3,B3,2980
4,B4,817
5,B5,2980
6,B6,2980
7,B7,2980
8,B8,2980
9,B9,> 5000
10,B10,> 5000
11,B11,100
12,B12,2980
13,B13,4500
14,B14,> 5000
15,B15,> 5000
16,B16,> 5000
17,B17,2980
18,B18,47.6

row,Binder,hAM1R EC50 (cAMP) [nM]
1,B19,2980
2,B20,2980
3,B21,2980
4,B22,> 5000
5,B23,> 5000
6,B24,3530
7,B25,> 5000
8,B26,> 5000
9,B27,> 5000
10,B28,2980
11,B29,3960
12,B30,2980
13,B31,38.2
14,B32,4880
15,B33,> 5000
16,B34,> 5000
17,B35,2980
18,B36,3230
